Measured values: paper PMC4134560

Target: BCL-xLΔC (BCL-xL construct lacking 22 C-terminal residues), Q07817
Sequence (Q07817 1-211, stated change not applied): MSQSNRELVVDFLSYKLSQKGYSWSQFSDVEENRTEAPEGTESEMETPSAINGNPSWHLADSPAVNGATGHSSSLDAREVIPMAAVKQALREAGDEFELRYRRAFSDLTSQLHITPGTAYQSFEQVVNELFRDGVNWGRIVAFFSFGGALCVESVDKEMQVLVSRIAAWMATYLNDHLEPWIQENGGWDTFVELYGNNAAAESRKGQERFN

Kd: 500 nM
Binder: STKKLSECLKRIGDELDSNM (modifications not checked) [BAX BH3 domain peptide]
